Here are results for one molecule from patent publication US20240277803A1, “NME INHIBITORS AND METHODS OF USING NME INHIBITORS” (Minerva Biotechnologies Corporation, priority 2013, published 2024).

Experiment [1] addresses T1, MUC1* extra cellular domain peptide (Homo sapiens, UniProt P15941).
T1 sequence (P15941 with tags, fused parts or gaps): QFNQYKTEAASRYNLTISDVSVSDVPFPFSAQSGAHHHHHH
Kind of experiment: gold nanoparticle binding assay, NME7 and MUC1* peptide (FIG. 7). The conditions noted are these: protein added free in solution. On the procedure:
Gold nanoparticles of a diameter of 30.0 nm were coated with an NTA-SAM surface according to Thompson et al. (ACS Appl. Mater. Interfaces, 2011, 3 (8), pp 2979-2987). The NTA-SAM coated gold nanoparticles were then activated with an equal volume of 180 uM NiSO4, incubated for 10 min at room temperature, washed, and resuspended in a 10 mM phosphate buffer ([…]). The gold nanoparticles were then loaded with PSMGER N-10 peptide ([…] (SEQ ID NO:155)) at 0.5 uM final concentration, and incubated at room temperature for 10 min. Recombinant NME7-AB protein expressed and purified from E. coli was added free in solution at the concentrations indicated. When particle-immobilized proteins bind to each other, or simultaneously bind to two different peptides on two different particles, the particle solution color changes from pink/red to purple/blue. If the protein added free in solution causes particle aggregation, it is strong evidence that the free protein dimerizes the cognate peptide, since binding to a single peptide would not induce two or more particles to be brought into close proximity to each other.
The NME7-AB is added free in solution at the concentrations indicated. Solution color change from pink to purple/blue from particle aggregation indicates binding between the MUC1* peptide on the particles and NME7 free in solution. […] Particle aggregation, indicating NME7 can simultaneously bind to two peptides is observed. […] The T47D breast cancer cell line Lysate, which contains native NME7 turns noticeably purple also.

Another experiment deals with Human stem cells (iPS). Kind of experiment: human iPS stem cell culture in NME7-AB or NM23-H1 dimers. The class given is cell-based. On the procedure:
Testing recombinant NME7 for ability to maintain pluripotency and inhibit differentiation. A soluble variant of NME7, NME7-AB, was generated and purified. Human stem cells (iPS cat #SC101a-1, System Biosciences) were grown per the manufacturer's directions in 4 ng/ml bFGF over a layer of mouse fibroblast feeder cells for four passages. These source stem cells were then plated into 6-well cell culture plates (Vita™, Thermo Fisher) that had been coated with 12.5 ug/well of a monoclonal anti-MUC1* antibody, MN-C3. Cells were plated at a density of 300,000 cells per well. The base media was Minimal Stem Cell Media consisting of: 400 ml DME/F12/GlutaMAX I (Invitrogen #10565-018), 100 ml Knockout Serum Replacement (KO-SR, Invitrogen #10828-028), 5 ml 100×MEM Non-essential Amino Acid Solution (Invitrogen#11140-050) and 0.9 ml (0.1 mM) β-mercaptoethanol (55 mM stock, Invitrogen #21985-023). The base media can be any media. In a preferred embodiment, the base media is free of other growth factors and cytokines. To the base media was added either 8 nM of NME7-AB or 8 nM NM23-H1 refolded and purified as stable dimers. Media was changed every 48 hours and due to accelerated growth had to be harvested and passaged at Day 3 post-plating. FIGS. 9 and 10 document the day by day comparison of growth in NM23-H1 dimers to growth in NME7 monomers. […] Cell counts at the first harvest verified that culture in NME7 produced 1.4-times more cells than culture in NM23-H1 dimers.

In experiment [2] the test system is T47D breast cancer cells. Put plainly: RT-PCR of T47D cells cultured in 2i inhibitors and/or NME7-AB (FIGS. 48, 49). The format is cell-based. As for the experimental part:
2i inhibitors, which are small molecule inhibitors of GSK3-beta and MEK of the MAP kinase signaling pathway, have been reported (Silva J et al, 2008) to revert mouse primed stem cells to the naïve state. We wondered whether these inhibitors could also revert human cancer cells to the cancer stem cell state. T47D breast cancer cells were cultured for 10 days in a serum-free minimal base media with the 2i inhibitors added or in the same base media with human recombinant NME7-AB added, or both NME7-AB and 2i. […] The relative potency of inducing the cancer stem cell markers was NME7>NME7+2i>2i (FIG. 48).

For experiment [3], the system named is T47D breast cancer cells. Put plainly: engraftment and growth of T47D cells mixed with NME7-AB in mice (FIG. 51). The class given is in vivo, Immune-compromised mice. From the text: For example, some cancer cells are very difficult to engraft in animals. We increased the engraftment rate of cancer cells by several fold by injecting the animal with human NME7 or NME7-AB. Immune-compromised mice were implanted with T47D breast cancer cells that were mixed 50/50 vol/vol with either Matrigel or NME7-AB. After 10 days, the mice that had received the NME7 mixed cells were additionally injected with NME7-AB every day (FIG. 51). […] Engraftment rates, decreased numbers of required cells and a faster tumor growth rate resulted when NME7-AB was mixed with the cancer cells when implanted and when the mice were injected every 24 or 48 hours after implantation. A range of ratios of cancer cells to NME7 or the injection schedule of NME7 is expected to vary from one mouse strain to another and from one tumor type to another. In an improvement over this method, animals that are transgenic for human NME7 or NME7-AB greatly increase engraftment rates of cancer cells and thus, decrease the number of cells required to develop into a tumor in an animal. This allows growth of primary patient cancer cells in an animal expressing human NME7 or NME7-AB.

B1: NME7-AB: recombinant human NME7 of NDPK A and B domains without the DM10 leader sequence, ~33 kDa (SEQ ID NO:39) (protein, listed as Homo sapiens)
chain: MEKTLALIKPDAISKAGEIIEIINKAGFTITKLKMMMLSRKEALDFHVDHQSRPFFNELIQFITTGPIIAMEILRDDAICEWKRLLGPANSGVARTDASESIRALFGTDGIRNAAHGPDSFASAAREMELFFPSSGGCGPANTAKFTNCTCCIVKPHAVSEGLLGKILMAIRDAGFEISAMQMFNMDRVNVEEFYEVYKGVVTEYHDMVTEMYSGPCVAMEIQQNNATKTFREFCGPADPEIARHLRPGTLRAIFGKTKIQNAVHCTDLPEDGLLEVQYFFKILDN
modifications: Human NME7-AB
Regarding B1, the “binding to MUC1* peptide on nanoparticles (color change pink to purple/blue)” value in experiment [1] is on record as “turned purple almost immediately”; in experiment [1] (listed as NME7) it was “has two binding sites for the MUC1* peptide”. Besides, the “stem cell growth, pluripotency and differentiation” value with Human stem cells (iPS) (8 nM in minimal media over MN-C3 surface) was “fully supported human stem cell growth”. The “cells produced relative to culture in NM23-H1 dimers (cell counts at first harvest)” value in the experiment with Human stem cells (iPS) (8 nM, Day 3 post-plating) was determined as 1.4 times. Moreover, the “expression of CDH1, CXCR4, OCT4, SOX2 and NANOG” value with T47D breast cancer cells [2] (T47D cultured for 10 days in serum-free minimal base media, FIG. 48) is “greatly up-regulated”. For the same molecule, the “expression of BRD4, JMJD6, MBD3 and CHD4” value in the experiment on T47D breast cancer cells [2] (T47D, FIG. 49) was “similarly down-regulated”. Besides, the “engraftment rate of cancer cells” value in the experiment on T47D breast cancer cells [3] (animal injected with human NME7 or NME7-AB) is “several fold”. Also, the “tumor size and growth rate” value in the experiment with T47D breast cancer cells [3] (cells mixed 50/50 vol/vol with NME7-AB, then injected every day, tumor promotion) is recorded as “larger tumors that grew at an accelerated rate”.
